Measured values from patent publication US20170275666A1, “Methods for Preparing Rebaudioside I and Uses” (The Coca-Cola Company, priority 2014, published 2017).
Changes are numbered by the printed parent chain.

B1: UGT76G1: UDP-glycosyltransferase from Stevia rebaudiana (Genbank AAR06912.1), in-vivo produced lysate (protein, UniProt Q6VAB4 1-458, looked up)
UDP-glycosyltransferase 76G1: MENKTETTVRRRRRIILFPVPFQGHINPILQLANVLYSKGFSITIFHTNFNKPKTSNYPHFTFRFILDNDPQDERISNLPTHGPLAGMRIPIINEHGADELRRELELLMLASEEDEEVSCLITDALWYFAQSVADSLNLRRLVLMTSSLFNFHAHVSLPQFDELGYLDPDDKTRLEEQASGFPMLKVKDIKSAYSNWQILKEILGKMIKQTKASSGVIWNSFKELEESELETVIREIPAPSFLIPLPKHLTASSSSLLDHDRTVFQWLDQQPPSSVLYVSFGSTSEVDEKDFLEIARGLVDSKQSFLWVVRPGFVKGSTWVEPLPDGFLGERGRIVKWVPQQEVLAHGAIGAFWTHSGWNSTLESVCEGVPMIFSDFGLDQPLNARYMSDVLKVGVYLENGWERGEIANAIRRVMVDEEGEYIRQNARVLKQKADVSLMKGGSSYESLESLVSYISSL
modifications: cell lysate
notes: UDP-glycosyltransferase from Stevia rebaudiana (Genbank AAR06912.1), in-vivo produced lysate
B2: UGT76G1var94: UGT76G1 variant, mutations Q266E_P272A_R334K_G348P_L379G; most active round 1 clone (protein, UniProt Q6VAB4 1-458, looked up, variant Q266E P272A R334K G348P L379G)
UDP-glycosyltransferase 76G1: B1 UDP-glycosyltransferase 76G1 with Q266E, P272A, R334K, G348P, L379G

Tests used:
Format in all cases: biochemical
[1] = Catalytic reaction with in-vivo produced UGT76G1, stevioside to rebaudioside A; conditions: 0.5 mM Stevioside, 2.5 mM UDP-glucose, thawed lysate, 30° C., HPLC (CAD)
Method: The total volume of the reaction was 5.0 mL with the following composition: 50 mM sodium phosphate buffer pH 7.2, 3 mM MgCl2, 2.5 mM UDP-glucose, 0.5 mM Stevioside and 500 μL of UGT76G1 thawed lysate. The reactions were run at 30° C. on an orbitary shaker at 135 rpm. For each sample, 460 μL of the reaction mixture was quenched with 40 μL of 2N H2SO4 and 420 μL of methanol/water (6/4). The samples were immediately centrifuged and kept at 10° C. before analysis by HPLC (CAD).

[2] = Directed evolution of UGT76G1, conversion of Rebaudioside D to Rebaudioside M (Round 2), normalized to Round1-Var94; conditions: round 2 clones; baseline clone Round1-Var94 defined as 100%; lysate, Rebaudioside D 0.5 mM, UDP-Glucose 2.5 mM, 30° C., pH 7.2, HPLC
Text: A list of 53 mutations was established containing different identified positive mutations from the first round and new mutations obtained by DNA2.0 ProteinGPS™ strategy. This list of mutations was subsequently used to design 92 variant genes that contained each 3 different mutations. After codon-optimized for expression in E. coli the genes were synthesized, subcloned in the pET30a+ plasmid and used for transformation of E. coli BL21 (DE3) chemically competent cells. The obtained cells were grown in Petri-dishes on solid LB medium in the presence of Kanamycin. Suitable colonies were selected and allowed to grow in liquid LB medium in tubes. Glycerol was added to the suspension as cryoprotectant and 400 μL aliquots were stored at −20° C. and at −80° C.
These storage aliquots of E. coli BL21(DE3) containing the pET30a+_UGT76G1var plasmids were thawed and added to LBGKP medium (20 g/L Luria Broth Lennox; 50 mM PIPES buffer pH 7.00; 50 mM Phosphate buffer pH 7.00; 2.5 g/L glucose and 50 mg/L of Kanamycine). This culture was allowed to shake in a 96 microtiter plate at 30° C. for 8 h.
3.95 mL of production medium containing 60 g/L of Overnight Express™ Instant TB medium (Novagen®), 10 g/L of glycerol and 50 mg/L of Kanamycin was inoculated with 50 μL of above described culture. In a 48 deepwell plate the resulting culture was allowed to stir at 20° C. […]

[3] = Directed evolution of UGT76G1, conversion of Rebaudioside D to Rebaudioside M (round 1); conditions: 0.5 mM Rebaudioside D, 2.5 mM UDP-Glucose, 100 μL fresh lysate, 30° C., pH 7.2
Procedure, shortened: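 Conversion to Reb M and initial rate were measured by HPLC with CAD at 2, 4, 7 and 24 h, with reactions run at 30° C in 50 mM phosphate pH 7.2 containing 0.5 mM Reb D, 2.5 mM UDP-glucose and 3 mM MgCl2. Enzyme source: fresh lysates of E. coli BL21(DE3) expressing 3-5-mutation UGT76G1 variants.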

| Molecule | conversion of stevioside to rebaudioside A [1] | Normalized conversion Reb D to Reb M after 22 h. [2] [%] | Normalized initial rate (0-4 h) [2] [%] | Conversion Reb D to Reb M after 24 h (%) [3] [%] | initial rate (Reb M area/min) [3] [Reb M area/min] |
| --- | --- | --- | --- | --- | --- |
| B1 | almost complete conversion |  |  |  |  |
| B2 |  | 100 | 100 | 72.0 | 7.9E+07 |
